In data set [1] the target is BRG1 AT-BD P1456L (human, UniProt P51532 1434-1569, P1456L). As to the kind of experiment: BLI.
Data set [2] has as its target BRG1 AT-BD R1502H (human, UniProt P51532 1434-1569, R1502H). As to the kind of experiment: BLI.

Sequence of BRG1 AT-BD P1456L (P51532 1434-1569 P1456L): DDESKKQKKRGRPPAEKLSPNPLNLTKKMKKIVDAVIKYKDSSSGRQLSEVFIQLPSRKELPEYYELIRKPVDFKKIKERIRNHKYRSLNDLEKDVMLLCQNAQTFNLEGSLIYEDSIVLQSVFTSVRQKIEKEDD
Sequence of BRG1 AT-BD R1502H (P51532 1434-1569 R1502H): as the sequence (P51532 1434-1569 P1456L) above, with L23P, R69H counted along it

B1: biotinylated SELEX-DNA (dsDNA)
DNA 1: CCTCAATTAAATCTC
DNA 2: GAGATTTAATTGAGG
As to B1, the Kd was determined as 1.2 ± 0.1 µM in data set [1] and 2.4 ± 0.2 µM in data set [2].

(Values after PMC7350285.)
